From IntAct's records for PubMed 21763481

B1: B9 domain-containing protein 2 (Mus musculus), Q3UK10 (parent)
chain: MAEVHVIGQIIGATGFSESSLFCKWGIHTGAAWKLLSGVREGQTQVDTPQIGDMAYWSHPIDLHFATKGLQGWPRLHLQVWSQDSFGRCQLAGYGFCHVPSSPGTHQLDCPTWRPLGSWREQLARAFVGGGPQLLHADTIYSGADRYRLHTAAGGTVHLGIGLLLRHFDRYGVEC
partner: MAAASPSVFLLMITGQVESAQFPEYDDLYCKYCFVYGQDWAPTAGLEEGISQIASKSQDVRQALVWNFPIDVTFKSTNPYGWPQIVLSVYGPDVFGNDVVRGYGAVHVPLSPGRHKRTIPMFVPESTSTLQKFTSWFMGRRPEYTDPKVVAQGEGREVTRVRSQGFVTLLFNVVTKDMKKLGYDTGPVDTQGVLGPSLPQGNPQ
B2: B9 domain-containing protein 2 (Mus musculus), Q3UK10 (parent)
chain: B1 chain
partner: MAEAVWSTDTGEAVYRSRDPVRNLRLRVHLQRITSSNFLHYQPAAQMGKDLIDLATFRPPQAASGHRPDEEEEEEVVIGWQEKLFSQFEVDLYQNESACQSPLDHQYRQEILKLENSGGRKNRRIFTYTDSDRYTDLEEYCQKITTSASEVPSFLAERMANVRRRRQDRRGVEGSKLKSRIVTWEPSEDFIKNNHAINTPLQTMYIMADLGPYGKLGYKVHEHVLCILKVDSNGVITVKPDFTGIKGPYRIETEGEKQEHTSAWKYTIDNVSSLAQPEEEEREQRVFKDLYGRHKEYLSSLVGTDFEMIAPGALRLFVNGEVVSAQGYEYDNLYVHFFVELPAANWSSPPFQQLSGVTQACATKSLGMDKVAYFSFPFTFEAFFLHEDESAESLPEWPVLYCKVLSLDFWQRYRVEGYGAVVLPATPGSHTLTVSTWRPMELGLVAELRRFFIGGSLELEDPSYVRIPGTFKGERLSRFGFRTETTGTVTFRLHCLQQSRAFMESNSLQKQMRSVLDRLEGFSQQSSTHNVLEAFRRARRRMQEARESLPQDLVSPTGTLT

Variants of: B1
Settings: with b9d1_mouse B9d1, Q9R1S0

**Q.** With S101R as the variant, how does the “effect of a mutation on the interaction” value read?
**A.** with no effect

Variants of: B2
Settings: with mks1_mouse Mks1, Q5SW45

**Q.** With S101R as the variant, how does the “effect of a mutation on the interaction” value read?
**A.** disrupting interaction
